Laboratory results taken from publication PMC6770890.

Target: T1, H-NS (Salmonella enterica serovar Typhimurium ATCC 14028s) (UniProt A0A0F6B244)
T1 sequence: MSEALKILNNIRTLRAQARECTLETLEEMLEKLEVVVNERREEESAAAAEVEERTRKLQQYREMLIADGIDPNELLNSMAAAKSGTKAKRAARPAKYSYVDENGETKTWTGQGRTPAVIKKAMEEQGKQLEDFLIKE
Test: EMSA
Conditions: 20 mM Tris-HCl, 1 mM EDTA, 100 ug/mL BSA, 1 mM DTT, 10% glycerol, 80 mM NaCl, 25 C, 30 min; 50 ng DNA in 20 uL, protein 0-9.76 uM; pH 7.5 or 5.5 in Fig. 5B …

| Sequence | binding |
| --- | --- |
| CAAAGACGCCGAGAATGTGAAAAAATTCGTTCAGGCTTATCAGTCTGATGAAGTGTACGAAGCCGCAAATAAAGTTTTTAATGGCGGCGCGGTGAAAGGCTGGTAAGTTTTAGGCTGATTCCACAATCTGTAATATTATTCAGGACGGGCTATTGCCCGTCTTGTCATTTATGCAAGCTCCTGATTCAATATCTGGC (double strand) [yaeB promoter (PyaeB)] | binds |
| GCCGTGCTGTTCACTCATCCGCGCCACCAGCCGGTCAAGGTGCAGACGGGCAATCACGCCACGCGACGTTTCGTCCAGCGGCAGGTAAGGGATCACCGTCACGCGGCCCAGAAATGCCGCCGGGAAATGCTTGCGCAATTCCGGCATTAGCGCCTCTTTAAGCCCCGTAGCATCGGGCATTAAGGCCGGATCTTCACACATCTGGCTGATGAGGTCGGAACCCACGTTGGTGGTGAGTAATAGCGTGGTG (double strand) [STM0272 fragment] | no binding |
